Patent publication US20180265558A1

Molecular target: FGFR-1c expressed on BaF3 cells
Assay: cell-based or functional assay

mitogenic potency on BaF3 cells expressing FGFR-1c, relative to wild-type FGF-1 (fold against wild-type FGF-1): 10
Substance: modified FGF-1 (S116R mutant protein) (from UniProt P05230 16-155) (ligand)
